Test results published in paper PMC6416337.

Molecular target: 14-3-3λ (UniProt P48349)
Experiment: GST pull-down, anti-14-3-3 blot
Settings: reference: SOS2-JD without PKS5; sites S294

“SOS2 junction domain (SOS2-JD) (from UniProt Q9LDI3) SOS2-JD incubated with PKS5 and ATP” was tested, and the “binding against the reference” value was “stronger”.
